Reference: a protein production outcome set (Wang et al. 2014)

Test: label from the status in PepcDB records
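Note: failed if final PepcDB status was selected cloned or expressed and not failed if soluble or beyond.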

QSTGQVTLGVLTDMSSVYADSAGKGSVAAVQLAIEDVGGKALGQPVKLVSADYQMKTDVALSIAREWFDRDGVDAIFDVVNSGTALAINNLVKDKKKLAFITAAAADQIGGTECNGYGIGFLYNFTSIVKTVVQAQLAKGYKTWFLMLPDAAYGDLMNAAIRRELTAGGGQIVGSVRFPFETQDFSSYLLQAKASGAQLIVSTSGGAANINIMKQAREFGLPSKTQKVGGMIDILTDVKSAGLRVMQGQEYATSFYWNMDDRTRAFAKRFYAKMGKMPTNNQAGGYSAALQYLKAVNAIGSKDPQKVFAYLKTIKFDDAVTRHGTLRPGGRLVRDMYLVRAKKPEDQKGDWDYYDVVATIGPEQAFGPLSESRCAMDK
protein production: not failed

QSVHDIEKTLIRIGVVQWQMRAMNDLEDLLDQAEFFISSLANYKADFALFPEFFNAPLMGLQNDQNSVEAIRFLASFTEEIKNRFSQMAVTYNINIIAGSMPLIEDGKLYNVAYLLQRDGEINAQYKIHITPHEQKDWVIDGGDNVQVFETDAGKVGILICYDSEFPELGRMLAEQGAQIIFVPFWTDTKNGYQRVRICSQSRAIENECYVAIGGSVGNLPRVDNVDIQYAQSAVFSPSDIYFPHDATLTEASANTEMIIFADVDLTKLKQLNTEGSVTNLRHRRLDLYGAFTTPKE
protein production: failed

QTASGASYVLREIGADDTATAFAALSVLRSSLTDIGRFTEQINKIQRPQGYRLLGIFEECKHNAVAVCGFREACTLAGGRHIHIDDIVTLPQSRRKGYASRLLEEVRKIGAETGVTKIHLNVHVNHDRTDAHRLYFKNGFEICAYHFRCDPK
protein production: failed

QTDPKKPTTDEGTASSEVNATEEMSTLVNYIEPVKFKSFEAARKRNKCFEMSSFVETKAMEQLTKSPMEFVEYNKQQLSRIYPKGTRVDSSNYMPQLFWNVGCQLVALNFQTLDVAMQLNAGVFEYNGRSGYLLKPEFMRRPDKSFDPFTEVIVDGIVANALRVKVISGQFLSDRKVGIYVEVDMFGLPVDTRRKYRTRTSQGNSFNPVWDEEPFDFPKVVLPTLASLRIAAFEEGGKFVGHRILPVSAIRSGYHYVCLRNEANQPLCLPALLIYTEASDYIPDDHQDYAEALINPIKHVSLMDQRARQLAALIGESEAQAGQETCQDTQSQQLGSQPSSNPTPSPLD
protein production: failed

RETLDNLSEAVAVFGSNGCAQLFNPPFARMWNLSAEALQSQPHIEAIEEWCRPLFDDDVFWQALRGAITGIDDRRHVLLKIERKDGSVLACKTMPLPDGATMLTFQDITDTENVERALRERNEALETADRIKIDFVHHVSYELRSPLTTIIGFA
protein production: failed

RFRVTPYHGNLLGDHERLAAFREAISSRARGLTYDLGAGSGILSFFASEYADRVIAIERDPKIAACAGENLSGLDNVSVVNEDALHYEFSAADTIICEMLDTALIDEEQVPVLRRALKFLRNDGTVIPQAVF
protein production: failed

RGIAVYVEHHNGNIHPVTYELIGKAREMASKIKQPVYCVFVGKDIKDKCSNLISYGVDEVFVYDEDEFKDFRIEPYSKAIENFIDKIKPTIVLVGGTTLGRSLAPRLAARFRTGLTADCTILDIQSNTDLDQIRPAFGGNIMAHINTPNNRPQFATVRYKIFSAPEKIENTTGKITLCKVEKKELKSKIKVLSVKEKNKEVG
protein production: failed

RGLALCREHYLDWFVKETERAIRRHRMLLPGERVLVAVSGGKDSLALWDVLSRLGYQAVGLHIELGIGEYSKRSLEVTQAFARERGLELLVVDLKEAYGFGVPELARLSGRVACSACGLSKRYIINQVAVEEGFRVVATGHNLDDEAAVLFGNLLNPQEETLSRQGPVLPEKPGLAARVKPFYRFSEREVLSYTLLRGIRYLHEEC
protein production: failed

RIVSTLNERLAGLTLHEIRDTYEERLDDLPDETGLIALVLDEASILFSEPDEGRLQFDGTQNILSQPEFQEPDDMRHLIETIEDEDRIVQVIENLFEANPDAVGQAVVRIGSETDQEEMDAYSIVLSPYQLGDTVGSLGVIGPKRMDYGRAVALVENMAAVVNRPADDETTD
protein production: failed

RKEDHARLRALNGLLYKALTDLLCTPEVSQELYDLNVELSKVSLTPDFSACRAYWKTTLSAEQNAHMEAVLQRSAAHMRHLLMSQQTLRNVPPIVFVQDKGNAALAELDQLLAVAD
protein production: not failed

RKTEKVVNNGIPWFDDRGEIVNAHGACIVEENGRYYLFGEYKSDKSNAFPGFSCYSSDDLVNWKFERVVLPMQSSGILGPDRVGERVKVMKCPSTGEYVMYMHADDMNYKDPHIGYATCSTIAGEYKLHGPLLYEGKPIRRWDMGTYQDTDGTGYLLLHGGIVYRLSKDYRTAEEKVVSGVGGSHGESPAMFKKDGTYFFLFSNLTSWEKNDNFYFTAPSVKGPWTRQGLFAPEGSLTYNSQTTFVFPLKCGEDTIPMFMGDRWSYPHQASAATYVWMPMQVDGTKLSIPEYWPSWDVDKLKPVNPLRKGKTVDLKKITFSKEADWKVEEGRISSNVKGSTLSIPFTGSCVAVMGETNCHSGYARMNILDKKGEKIYSSLVDFYSKANDHATRFKTPQLAEGEYTLVIEVTGISPTWTDKTKRIYGSDDCFVTITDIVKL
protein production: not failed

RNRFKWGPASQQILYQAYDRQKNPSKEEREALVEECNRAECLQRGVSPSKAHGLGSNLVTEVRVYNWFANRRKEEAFRQKLAMDAYSSN
protein production: not failed

RPKTGFQMWLEENRSNILSDNPDFSDEADIIKEGMIRFRVLSTEERKVWANKAKGETASEGTEAKKRK
protein production: not failed

RQKLLADFGEFALSNDNLADILTEACRLVGNALGTQRANVLEIEPSKRSLFVRAGVGLDDGIVGKLRLPMREIASERFSPDGSPLDIIHDVHTEPQYDLAAFMEVAGVVALVNVPILLPGRTLYGLLQVESSEPREFSQDDVEFLRTYSTILGPVIDRLNKVRALRDAEERFRLIVEAAR
protein production: failed

RQQSMAERHDYDQKEEKTDGGELVSSYMCSPETAAEEFEISKKLYAQLTGRSQSEKHDIIMYRIIQSFKPDEVSPEEAHKIGCELAMKFTGGQHQFVVATHTDKRHIHTHIEFNSTNLNCDAKFQNVKNSAFILRRMNDELCRAHGLSVIENPKKKARPQKEMAAAQYGVSHKKQLQQAIDRLLPECNHYEEFLAKMRAEGYEVVDGKNPGFRLPGWDRPTRVNRLG
protein production: not failed

RRRAPLARLRQAIQRCEFFVCYQPIVSLSDGRCVGAEALVRWRQQDGTLILPDQFIPLAERSGLILPITDQVIAASMRELGPLLVADRSLHIAINVSVKDIESGRLLDVLALALQDTGLYRKQLWIEATERSFMDARAAREHIVRLREAGYAVVIDDFGTGYSNLQYLQQLPLDALKIDKSFIDTVGRDVTNTAVASHIIDIAKELGMRTIAEGVEREEQLVYLRARGVDMAQGWLFSSPLSVAEFVDYLSHNRSMHPDD
protein production: failed

RSPPSNLALASETPDSLQVSWTPPLGRVLHYWLTYAPASGLGPEKSVSVPGARSHVTLPDLQAATKYRVLVSAIYAAGRSEAVSATGQTACP
protein production: not failed

RTAVMIMNGNQLVGFFCLHVGQGPLSYGETEVNTILLRALSVDDRFKHQRVASDALAELPRYLASHYPMIQTILLAVNHANHVAQHLY
protein production: failed

RTDVIVVGVLDWKKGNLSFVSIPRDLMIEGKKINAIYNTYGMEKLFQIIESLLGQKPDSYVIFNYEAFKILVDELGPIEVIPNEVMFYEDLSQNLVIDFKPGVPYKLNGEQLLAYIRYRKDSMGDLARIERQKDVLKKLLSKALS
protein production: failed

RTEAGDAYYSKFANNTPLPALMVSRKKFGSSYVYDKSYKTWDVPIAEQMEQKAKINIFAVAEYTDTQKIKVTVKGKILEGNTLPKSMVQVYLLEDKLIAPQVDGNTTVENYEHNHVLRGAVNGIWGEEFVNLKDYLYTYAVEPLSGMSFVAENYSIVAFVYDVQTFEVYDVVHVKINPQSDGK
protein production: not failed

RTFAVAAVAALVLPLSACGSGGDGGSSTDASGKVEGDITFQTWNLRANFKDYFEGLIADFEKKYPDTHVKWVDQPGEGYADKISADAAGGTLPDVVNVSPDLVAPLAKAGLALDLDKAAGQYEKEYLEGAWASHRIPGMDGTYAFPWYLNTGPLFYNKSLFEKAGLDPEQPPRTYDEVFDAALKIADKTDGEVATLANVPTIEDFGRYGVPLMNKEGTAFAFNDAKGVQLLARYKELYDAKALDPQALTATPESSGKKFLTGAVAMNPGSALDLANFKKQAPNLYENIGITDQITSTGHVNMYVMGLMVNAQSQRKPAAVAFAHYVTDAAHQMSFAKQVAIFPSTAGSLDDPYFTKEDGTDETRVRVAAAKSLKTAVNYTPVLFSEQMKTELRNEVAKALQGKQSPKEALDNAVKACDRLLQ
protein production: failed

RTKDQYYELRDFALGTSVRIVVSSQKINPRTIAEAILEDMKRITYKFSFTDERSVVKKINDHPNEWVEVDEETYSLIKAACAFAELTDGAFDPTVGRLLELWGFTGNYENLRVPSREEIEEALKHTGYKNVLFDDKNMRVMVKNGVKIDLGGIAKGYALDRARQIALSFDENATGFVEAGGDVRIIGPKFGKYPWVIGVKDPRGDDVIDYIYLKSGAVATSGDYERYFVVDGVRYHHILDPSTGYPARGVWSVTIIAEDATTADALSTAGFVMAGKDWRKVVLDFPNMGAHLLIVLEGGAIERSETFKLFERE
protein production: not failed

RVLEFHPLGSGLAMTEFVVGSRLMGKTLSDLALCKVEGVQVLGFKRGPEIIKAPDMSTTLEIGDLIIVVGPQDKLANKLKSL
protein production: failed

RYSDAHLHYVDFFQESEGMPALIKAMDAAGVEQSMISGIPVAKKWHEDEPKRPRYYAGDDADAYWYSATDTYVAAALQQLPSDQRKRFHPFLSGFNPVDKNAVSHIERMLDLYPGLWQGIGEVFTRHDDLTALTSGDTPRANNEAMTRIYHLAAERDLPVLLHSNITSKRERNPLYLAEIEEPLRNHPHTRFIWAHAGSSMEIHRHQKQMDFLLPVLTRLLEDYPNLYVDLSWSVLQPYLLDEQGAPRKEWLALVEKYPERFMLGSDVVGRFGSLGEQMHGFKPFLDALPESVAHKVARENFLAVLPKAR
protein production: failed

SAELGLNEHHQNEVINYMRFARSKRGLRLKTVDSCFQDLKESRLVEDTFTIDEVSEVLNGLQAVVHSEVESELINTAYTNVLLLRQLFAQAEKWYLKLQTDISELENRELLEQVAEFEKAEITSSNKKPILDVTKPKLAPLNEGGTAELLNKEILRLQEENEKLKSRLKTIEIQATNALDEKSKLEKALQDLQLDQGNQKDFIKAQDLSNLENTVAALKSEFQKTLNDKTENQKSLEENLATAKHDLLRVQEQLHMAEKELEKKFQQTAAYRNMKEILTKKNDQIKDLRKRLAQYEPED
protein production: not failed

SAGTGVVAVYGEGAMTETKQKSPFSVKVGLAQMLRGGVIMDVVNAEQARIAEEAGACAVMALERVPADIRAQGGVARMSDPEMIKEIKNAVTIPVMAKARIGHFVEAQILEAIGVDYVDESEVLTLADEDNHINKHNFKIPFVCGCRNLGEALRRIREGAAMIRTKGEAGTGNVVEAVRHVRSVNGAIRLLRSMDDDEVFTYAKKIAAPYDLVVQTKELGRLPVVQFAAGGVATPADAALMMQLGCDGVFVGSGVFKSGDPVKRAKAIVQAVTNYRDAAVLAEVSCGLGEAMVGLNLDDKVERFASRSE
protein production: not failed

SATHGQTCARPMCIPPSYADLGKAARDIFNKGFGFGLVKLDVKTKSCSGVEFSTSGSSNTDTGKVTGTLETKYKWCEYGLTFTEKWNTDNTLGTEIAIEDQICQGLKLTFDTTFSPNTGKKSGKIKSSYKRECINLGCDVDFDFAGPAIHGSAVFGYEGWLAGYQMTFDSAKSKLTRNNFAVGYRTGDFQLHTNVNDGTEFGGSIYQKVCEDLDTSVNLAWTSGTNCTRFGIAAKYQLDPTASISAKVNNSSLIGVGYTQTLRPGVKLTLSALVDGKSINAGGHKVGLALELEA
protein production: not failed

SAVLVALSLAGLPTDRFFFDGFLPSKQGARRARLGELAAIDATLVLFEAGSRIQNSVHDLADLLGATREAAICRELTKLHQEVRRATLAELAAQADTMETRGEFVVVIAP
protein production: failed
